This passage reports other: relative clathrin binding (intensity divided by that of 15mer E) and ratio to parent results from article PMC5004861.

The first experiment deals with clathrin purified from bovine brain, P49951. Kind of experiment: peptide array overlay assay. The conditions noted are these: chain shown with the change, n = 1, parent: est. 0.15, read off a plot.
Chain of clathrin purified from bovine brain, P49951 (P49951 2-1675, chain 1 of 3): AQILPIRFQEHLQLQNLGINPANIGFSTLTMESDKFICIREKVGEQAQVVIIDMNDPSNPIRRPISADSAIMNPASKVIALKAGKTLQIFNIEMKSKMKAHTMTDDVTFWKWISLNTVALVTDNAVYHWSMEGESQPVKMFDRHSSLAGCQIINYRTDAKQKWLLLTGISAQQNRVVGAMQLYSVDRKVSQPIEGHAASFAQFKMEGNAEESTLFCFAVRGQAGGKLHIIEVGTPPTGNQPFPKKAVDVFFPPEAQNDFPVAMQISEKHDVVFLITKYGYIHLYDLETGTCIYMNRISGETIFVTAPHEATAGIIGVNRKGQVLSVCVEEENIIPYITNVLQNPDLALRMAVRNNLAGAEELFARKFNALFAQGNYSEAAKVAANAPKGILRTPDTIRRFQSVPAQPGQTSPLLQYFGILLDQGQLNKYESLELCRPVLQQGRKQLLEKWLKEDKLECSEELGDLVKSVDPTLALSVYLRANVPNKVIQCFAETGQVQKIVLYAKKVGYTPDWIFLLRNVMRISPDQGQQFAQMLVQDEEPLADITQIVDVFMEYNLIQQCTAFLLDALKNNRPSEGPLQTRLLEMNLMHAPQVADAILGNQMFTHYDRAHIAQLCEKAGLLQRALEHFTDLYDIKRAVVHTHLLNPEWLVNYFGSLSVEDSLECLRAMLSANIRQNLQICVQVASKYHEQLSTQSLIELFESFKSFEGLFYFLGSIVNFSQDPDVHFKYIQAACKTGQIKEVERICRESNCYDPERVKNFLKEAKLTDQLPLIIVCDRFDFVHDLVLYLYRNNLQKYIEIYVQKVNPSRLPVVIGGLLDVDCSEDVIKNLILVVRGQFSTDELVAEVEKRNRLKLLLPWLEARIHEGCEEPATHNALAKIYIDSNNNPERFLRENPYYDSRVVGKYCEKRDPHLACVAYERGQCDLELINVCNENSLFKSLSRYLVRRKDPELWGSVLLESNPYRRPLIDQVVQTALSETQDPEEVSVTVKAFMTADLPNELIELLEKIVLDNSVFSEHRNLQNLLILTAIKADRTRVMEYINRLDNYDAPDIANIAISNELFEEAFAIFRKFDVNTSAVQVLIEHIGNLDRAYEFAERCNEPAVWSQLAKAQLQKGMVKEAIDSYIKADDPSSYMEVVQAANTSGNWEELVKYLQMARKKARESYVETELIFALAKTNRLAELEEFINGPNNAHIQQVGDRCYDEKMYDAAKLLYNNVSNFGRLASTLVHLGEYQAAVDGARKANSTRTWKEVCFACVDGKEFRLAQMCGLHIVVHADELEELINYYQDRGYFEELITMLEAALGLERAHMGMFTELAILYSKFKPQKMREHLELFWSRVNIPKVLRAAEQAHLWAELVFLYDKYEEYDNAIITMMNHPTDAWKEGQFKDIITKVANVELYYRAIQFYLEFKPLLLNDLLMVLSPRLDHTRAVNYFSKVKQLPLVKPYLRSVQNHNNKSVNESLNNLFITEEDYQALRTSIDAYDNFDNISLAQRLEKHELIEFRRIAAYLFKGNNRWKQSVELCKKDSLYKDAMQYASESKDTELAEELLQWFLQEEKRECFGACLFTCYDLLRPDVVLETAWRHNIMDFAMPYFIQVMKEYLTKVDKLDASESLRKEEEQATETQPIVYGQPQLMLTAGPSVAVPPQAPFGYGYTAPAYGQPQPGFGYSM
Chain of clathrin purified from bovine brain, P49951 (chain, as listed by the source, chain 2 of 3): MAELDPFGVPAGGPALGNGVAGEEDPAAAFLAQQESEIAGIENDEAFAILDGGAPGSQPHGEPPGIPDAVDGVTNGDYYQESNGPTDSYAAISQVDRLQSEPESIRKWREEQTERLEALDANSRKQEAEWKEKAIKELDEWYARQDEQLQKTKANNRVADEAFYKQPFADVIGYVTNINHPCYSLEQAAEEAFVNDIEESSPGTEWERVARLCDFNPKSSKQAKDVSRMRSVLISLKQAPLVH
Chain of clathrin purified from bovine brain, P49951 (chain, as listed by the source, chain 3 of 3): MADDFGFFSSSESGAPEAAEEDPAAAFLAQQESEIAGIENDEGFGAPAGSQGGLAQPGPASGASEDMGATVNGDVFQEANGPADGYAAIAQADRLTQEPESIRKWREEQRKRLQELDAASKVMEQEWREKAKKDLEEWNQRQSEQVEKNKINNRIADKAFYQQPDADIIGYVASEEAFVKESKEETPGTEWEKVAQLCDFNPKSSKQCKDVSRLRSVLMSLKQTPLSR
Consider SDDADSSAANAVGNA [CALM iso3 487-…-501 L490A; L494A; L497A; L501A], for which the other: relative clathrin binding (intensity divided by that of 15mer E) amounted to 0. As for SAAAASSAANAVGNA [CALM iso3 487-…-501 D488A; D489A; L490A; D491A; L494A; L497A; L501A], the other: relative clathrin binding (intensity divided by that of 15mer E) was found to be 0. For the molecule SAALASSLANLVGNL [CALM iso3 487-…-501 D488A; D489A; D491A], the other: relative clathrin binding (intensity divided by that of 15mer E) turned out to be 0.35.

Still in this experiment, the particulars now being: chain shown with the change, n = 1, parent: est. 1.0, read off a plot.
As for AASSAANAVGNAGAG [CALM iso3 490-…-504 L490A; D491A; L494A; L497A; L501A; I503A], the ratio to parent was 0. As to PAKAPLAALNIKAFL [AP180 Site 2 peptide 882-…-896 D885A; D889A; D894A], the ratio to parent amounted to 0.12. Still for that read-out and setting: with PNPFGPVSGAQAQAA [CALM iso3 C-terminus peptide 596-…-610 I607A; F609A; M610A] the figure was 0. On the same count and under the same terms, with PAKDPAADANAKDAA [AP180 Site 2 peptide 882-…-896 L887A; L890A; I892A; F895A; L896A] the figure was 0; with PAKAPAAAANAKAAA [AP180 Site 2 peptide 882-…-896 D885A; L887A; D889A; L890A; I892A; D894A; F895A; L896A], 0; with ADSSAANAVGNAGAG [CALM iso3 490-…-504 L490A; L494A; L497A; L501A; I503A], 0. On the same count and under the same terms, the result for LASSLANLVGNLGIG [CALM iso3 490-…-504 D491A] reads 1.
